From patent US12514920B1, “Respiratory syncytial virus mRNA vaccine, and preparation method therefor and use thereof” (Hangzhou Tianlong Pharmaceutical Co., Ltd., priority 2024, dated 2026)

Key:
[1] = system: RSV pre-F antibody (7E11); assay: ELISA binding of RSV F antigen mutants, epitope V; conditions: for Binding amount to antibody/binding amount of PC-RSV-064 to antibody, Epitope V: antibody 7E11, relative to PC-RSV-064
Description: (§1) To investigate the binding of the RSV F antigen mutants to antibodies recognizing different epitopes, the binding amount was determined by an ELISA method in this example.
(§2) • 293T cells (purchased from ATCC cell bank); • Primary antibody: RSV pre-F antibody (3C12), epitope ([…] (Novoprotein, Cat. No.: DA101); • RSV pre-F antibody (7H11), epitope Quaternary (Novoprotein, Cat. No.: DA109); • RSV F antibody (11A9), epitope II (Novoprotein, Cat. No.: DA091); • RSV F antibody (4B9), epitope III (Novoprotein, Cat. No.: DA110); • RSV pre-F antibody (7E11), epitope V (Cat. No.: DA119); • Standard: RSV-pre-F trimer protein (Novoprotein, Cat. No.: DRA230); • Secondary antibody: peroxidase AffiniPure goat anti-human IgG (H+L) (Yeasen, Cat. No.: N/A); • Experimental group: mRNA vaccines after screening in Example 5;
(§3) Cell culture and transfection, and protein sample preparation: the experimental procedures were the same as in Example 3.
(§4) Detection of antigen expression by ELISA: the experimental procedures were the same as in Example 5.
(§5) In the present application, the binding of different mutant antigens to antibodies recognizing different epitopes was detected by ELISA, and the strength of the binding of the antigens to the antibodies was measured by the binding amount. (1) The RSV pre-F antibody (3C12) recognizing the epitope Φ binds only to the F protein in the pre-fusion conformation; (2) the RSV pre-F antibody (7H11) recognizes the epitope Quaternary (spanning both epitopes IV and V) and specifically binds to the F protein in the pre-fusion conformation; (3) the RSV F antibody (11A9) recognizing the epitope II can recognize both the pre-fusion and post-fusion conformations of the F protein; (4) the RSV F antibody […] recognizing the epitope III preferentially recognizes the pre-fusion conformation and has relatively weak binding activity for the post-fusion conformation; (5) the RSV pre-F antibody (7E11) recognizing the epitope V binds only to the F protein in the pre-fusion conformation.

[2] = system: RSV pre-F antibody (3C12); type: physicochemical; conditions: for stability under the stress tests (in words): all stress tests, binding to 3C12, ELISA; for Stress resistance parameter, Osmotic pressure (mM) 3000: high osmotic pressure 3000 mM; for Stress resistance parameter, Osmotic pressure (mM) 3000 / Stress resistance parameter, Osmotic pressure (mM) 10: room temperature; for Stress resistance parameter, Osmotic pressure (mM) 3000 / Stress resistance parameter, Osmotic pressure (mM) 10 / Stress resistance parameter, pH 3.5 / Stress resistance parameter, pH 10: 60 min; for Stress resistance parameter, Osmotic pressure (mM) 3000 / Stress resistance parameter, Temperature (° C.) 50 / Stress resistance parameter, Osmotic pressure (mM) 10 / Stress resistance parameter, pH 3.5 / Stress resistance parameter, pH 10 / Stress resistance parameter, Temperature (° C.) 4: ELISA binding to 3C12; for Stress resistance parameter, Temperature (° C.) 50: incubation at 50° C. for 60 min; for Stress resistance parameter, Osmotic pressure (mM) 10: low osmotic pressure 10 mM; for Stress resistance parameter, pH 3.5: pH 3.5, room temperature; for Stress resistance parameter, pH 10: pH 10, room temperature; for Stress resistance parameter, Temperature (° C.) 4: storage at 4° C. for one week
Summary of the method: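 RSV F mRNA-vaccine mutants stress-treated: 4° C. for one week, 50° C. for 60 min, low or high osmotic pressure at room temperature for 60 min, acid or base at room temperature for 60 min. Binding to 3C12 (epitope Φ) then measured by ELISA against pre-F trimer standard, HRP anti-human IgG, OD 450/630 nm.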

RSV F antibody (4B9) = assay: ELISA binding of RSV F antigen mutants, epitope III; conditions: for Binding amount to antibody/binding amount of PC-RSV-064 to antibody, Epitope III: antibody 4B9, relative to PC-RSV-064
Description: as §1, §2, §3, §4, §5

[3] = system: RSV pre-F antibody (3C12); assay: ELISA binding of RSV F antigen mutants, epitope Φ; conditions: for Binding amount to antibody/binding amount of PC-RSV-064 to antibody, Epitope Φ: antibody 3C12, relative to PC-RSV-064
Description: as §1, §2, §3, §4, §5

[4] = system: RSV pre-F antibody (7H11); assay: ELISA binding of RSV F antigen mutants, epitope Quaternary; conditions: for Binding amount to antibody/binding amount of PC-RSV-064 to antibody, Epitope Quaternary: antibody 7H11, relative to PC-RSV-064
Description: as §1, §2, §3, §4, §5

Row | Molecule | ELISA binding amount, Epitope V, RSV F antibody (7E11) [1] | Binding amount to antibody/binding amount of PC-RSV-064 to antibody, Epitope V [1] | stability under the stress tests (in words) [2] | Stress resistance parameter, Osmotic pressure (mM) 3000 [2] | Stress resistance parameter, Temperature (° C.) 50 [2] | Stress resistance parameter, Osmotic pressure (mM) 10 [2] | Stress resistance parameter, pH 3.5 [2] | Stress resistance parameter, pH 10 [2] | Stress resistance parameter, Temperature (° C.) 4 [2] | ELISA binding amount, Epitope III, RSV F antibody (4B9) (RSV F antibody (4B9)) | Binding amount to antibody/binding amount of PC-RSV-064 to antibody, Epitope III (RSV F antibody (4B9)) | ELISA binding amount, Epitope Φ, RSV pre-F antibody (3C12) [3] | Binding amount to antibody/binding amount of PC-RSV-064 to antibody, Epitope Φ [3] | ELISA binding amount, Epitope Quaternary, RSV pre-F antibody (7H11) [4] | Binding amount to antibody/binding amount of PC-RSV-064 to antibody, Epitope Quaternary [4] | binding of epitope Φ, epitope Quaternary and epitope V to the corresponding antibodies (in words) ([3]; ELISA, antibodies 3C12, 7H11, 7E11)
1 | YK-RSV-055 (protein) QNITEEFYQSTCSAVSKGYLGALRTGWYTSVITIELSNIKENKCNGTDAKVKLIKQELDKYKNAVTDLQLLMQSTPATGSGSCIASGVAVSKVLHLEGEVNKIKSALLSTNKAVVSLSNGVSVLTFKVLDLKNYIDKQLLPILNKQSCSIPNIETVIEFQQKNNRLLEITREFSVNAGVTTPVSTYMLTNSELLSLINDMPITNDQKKLMSNNVQIVRQQSYSIMSICKEEVLAYVVQLPLYGVIDTPCWKLHTSPLCTTNTKEGSNICLTRTDRGWYCDNAGSVSFFPQAETCKVQSNRVFCDTMNSRTLPSEVNLCNVDIFNPKYDCKIMTSKTDVSSSVITSLGAIVSCYGKTKCTASNKNRGIIKTFSNGCDYVSNKGVDTVSVGNTLYYVNKQEGQSLYVKGEPIINFYDPLVFPSDEFDASISQVNEKINQSLAFIRKSDELLHNVNAGKSTTNIMITTIIIVIIVILLSLIAVGLLLY | 91 ng/mL | 0.28 | superior stability | 0.71 ± 0.23 | 0.78 ± 0.19 | 0.72 ± 0.20 | 0.69 ± 0.08 | 0.79 ± 0.26 | 0.48 ± 0.11 | 7298 ng/mL | 2.54 | 8589 ng/mL | 3.10 | 4317 ng/mL | 1.20 | –
2 | YK-RSV-057 (protein) QNITEEFYQSTCSAVSKGYLGALRTGWYTSVITIELSNIKENKCNGTDAKVKLIKQELDKYKNAVTDLQLLMQSTPATGSGSCIASGVAVSKVLHLEGEVNKIKSALLSTNKAVVSLSNGVSVLTFKVLDLKNYIDKQLLPILNKQSCSIPNIETVIEFQQKNNRLLEITREFSVNAGVTTPVSTYMLTNSELLSLINDMPITNDQKKLMSNNVQIVRQQSYSIMSCIKEEVLAYVVQLPLYGVIDTPCWKLHTSPLCTTNTKEGSNICLTRTDRGWYCDNAGSVSFFPQAETCKVQSNRVFCDTMNSRTLPSEVNLCNVDIFNPKYDCKIMTSKTDVSSSVITSLGAIVSCYGKTKCTASNKNRGIIKTFSNGCDYVSNKGVDTVSVGNTLYYVNKQEGQSLYVKGEPIINFYDPLVFPSDEFDASISQVNEKINQSLAFIRKSDELLHNVNAGKSTTNIMITTIIIVIIVILLSLIAVGLLLY | 129 ng/mL | 0.40 | superior stability | 0.64 ± 0.15 | 0.64 ± 0.17 | 0.70 ± 0.07 | 0.56 ± 0.08 | 0.56 ± 0.09 | 0.61 ± 0.10 | 4779 ng/mL | 1.67 | 5210 ng/mL | 1.88 | 6346 ng/mL | 1.76 | –
3 | YK-RSV-050 (protein) QNITEEFYQSTCSAVSKGYLGALRTGWYTSVITIELSNIKENKCNGTDAKVKLIKQELDKYKNAVTDLQLLMQSTPATGSGSFLGFCLGVGSAIASGVAVSKVLHLEGEVNKIKSALLSTNKAVVSLSNGVSVLTFKVLDLKNYIDKQLLPILNKQSCSIPNIETVIEFQQKNNRLLEITREFSVNAGVTTPVSTYMLTNSELLSLINDMPITNDQKKLMSNNVQIVRQQSYSIMSIIKEEVLAYVVQLPLYGVIDTPCWKLHTSPLCTTNTKEGSNICLTRTDRGWYCDNAGSVSFFPQAETCKVQSNRVFCDTMCSRTLPSEVNLCNVDIFNPKYDCKIMTSKTDVSSSVITSLGAIVSCYGKTKCTASNKNRGIIKTFSNGCDYVSNKGVDTVSVGNTLYYVNKQEGQSLYVKGEPIINFYDPLVFPSDEFDASISQVNEKINQSLAFIRKSDELLHNVNAGKSTTNIMITTIIIVIIVILLSLIAVGLLLY | 923 ng/mL | 2.88 | superior stability | 0.66 ± 0.15 | 0.69 ± 0.15 | 0.87 ± 0.19 | 1.23 ± 0.27 | 1.16 ± 0.37 | 0.46 ± 0.07 | 3494 ng/mL | 1.22 | 3068 ng/mL | 1.11 | 3722 ng/mL | 1.03 | able to well bind
